The target in assay [1] is SARS-CoV-2 Spike RBD区域蛋白 (SARS-CoV-2, UniProt P0DTC2 319-541). In words: competitive ELISA, GD1-69 against ACE2 for SARS-CoV-2 S protein / RBD.
Assay [2] concerns the target SARS-CoV-2 Spike蛋白 (SARS-CoV-2, UniProt P0DTC2 16-1213). In words: cell-based or functional assay.

B1: GD1-69 (antibody, human IgG1, kappa, V domains shown)
VH: EVQLLESGGGLVQPGGSLRLSCAASGFTFSNYAMSWVRQAPGKGLEWVSVIYSGVSSTYYEDSVKGRFTISRDNSKNTLYLQMNSLRAEDTAVYYCAKDPSYDTRGYIFDYWGQGTLVTVSS
VL: DIVMTQSPATLSVSPGERATLSCRASQSVSTNLAWYQQKPGQAPRLLIYGTSTRATGVPARFSGSGSGTEFTLTISSLQSEDFAIYYCLQYNNWRTFGQGTKLEIKR
notes: also called 目标抗体; GD1-69抗体
With B1, the 50% inhibitory concentration (IC50) in assay [1] stood at 0.26 µg/mL. In assay [2], the “噬斑减少中和测试 (活SARS-CoV-2病毒, Vero E6细胞) IC50” value stood at 0.44 µg/mL and the “基于假病毒的中和试验 IC50” value was found to be 1.77 µg/mL.

These data come from CN114349850A (JIANG QINGHUA; WANG PINGPING; STEP HIGH; ZHAO DONGMING, dated 2022).
